Reference: publication PMC3763809

Target: nucleosome containing the H3(1-132)-QFI chimera (Drosophila | budding yeast), P02299
Assay: ITC

Work on GLRKSTRVKVAPLQYWRNEKIVY (domain or fragment, modifications not checked) [budding yeast CENP-C motif] yielded a Kd of 300 nM.
